These results are taken from patent publication US8003342.

Bounds are passed on as bounds.

This assay concerns the target rat brain farnesyl:protein transferase (rat) (UniProt Q04631). Briefly: cell-based or functional assay.

As to “CVIM with lysine at the X position (peptide)”, the concentration giving 50% inhibition is over 40 µM and the fold decrease of affinity against CVIM, from the concentration required for 50% inhibition was over 30 fold.
“CVIM with glutamic acid at the X position (peptide)” had a concentration giving 50% inhibition of over 40 µM.
Consider “CVIM with lysine at the A2 position (peptide)”, for which the fold decline of affinity was over 50 fold and the fold decrease of affinity against CVIM, from the concentration required for 50% inhibition is over 30 fold.
With “CVIM with glutamic acid at the A2 position (peptide)”, the fold decline of affinity was over 50 fold.
In the case of “CVIM with glycine at the X position (peptide)”, the concentration giving 50% inhibition is over 40 µM.
